PMC13433802, “Structure of the NAT10 acetyltransferase and mechanism of tRNA acetylation” (Nature Communications, 2026)
Values belong to the molecule of their own block, whether it stands above or below them.

What was measured:
[1] = biological target: T1, CtNAT10 (Chaetomium thermophilum NAT10; Kre33) (Thermochaetoides thermophila, UniProt G0S273); experiment: differential scanning fluorimetry, SYPRO orange; format: binding; details: apo Tm 42.0 ± 0.3 °C, 5 mM MgCl2, Hepes pH 7.5, Tm with ligand, not a shift
T1 construct: codon-optimised synthetic gene; Sf9 (functional assays and 9B0I) or E. coli (9AYM, 9B0E)
T1 sequence (G0S273 1-1073): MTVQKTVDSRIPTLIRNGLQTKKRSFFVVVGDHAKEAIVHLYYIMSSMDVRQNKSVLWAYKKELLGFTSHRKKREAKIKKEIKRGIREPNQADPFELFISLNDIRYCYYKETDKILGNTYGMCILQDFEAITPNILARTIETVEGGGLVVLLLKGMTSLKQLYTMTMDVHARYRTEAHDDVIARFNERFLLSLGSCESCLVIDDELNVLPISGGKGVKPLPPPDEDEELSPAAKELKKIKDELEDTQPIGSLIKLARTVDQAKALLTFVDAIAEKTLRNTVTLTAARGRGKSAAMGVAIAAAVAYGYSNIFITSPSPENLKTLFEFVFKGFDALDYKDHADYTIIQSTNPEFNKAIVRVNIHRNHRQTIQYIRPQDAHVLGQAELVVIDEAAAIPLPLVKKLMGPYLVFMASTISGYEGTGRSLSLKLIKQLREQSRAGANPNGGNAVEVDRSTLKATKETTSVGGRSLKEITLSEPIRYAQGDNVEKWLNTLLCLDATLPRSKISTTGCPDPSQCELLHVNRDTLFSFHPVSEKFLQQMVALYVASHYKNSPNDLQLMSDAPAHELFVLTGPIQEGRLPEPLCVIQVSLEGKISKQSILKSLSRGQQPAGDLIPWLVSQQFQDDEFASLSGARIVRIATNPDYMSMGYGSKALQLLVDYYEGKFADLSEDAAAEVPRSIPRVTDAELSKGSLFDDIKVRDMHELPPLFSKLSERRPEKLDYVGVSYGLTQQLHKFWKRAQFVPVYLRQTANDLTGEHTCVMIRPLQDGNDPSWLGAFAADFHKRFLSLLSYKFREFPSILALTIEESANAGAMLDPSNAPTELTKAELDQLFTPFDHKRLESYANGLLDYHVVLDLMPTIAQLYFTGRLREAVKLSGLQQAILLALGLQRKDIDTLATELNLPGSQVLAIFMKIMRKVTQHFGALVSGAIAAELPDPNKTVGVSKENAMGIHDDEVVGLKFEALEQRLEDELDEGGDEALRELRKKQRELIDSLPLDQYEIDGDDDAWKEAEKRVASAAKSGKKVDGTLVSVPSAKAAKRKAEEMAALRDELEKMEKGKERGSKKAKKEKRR

[2] = biological target: Chaetomium thermophilum NAT10 (CtNAT10), E. coli-produced recombinant (Chaetomium thermophilum); experiment: mass photometry; 1 ul of 200 nM protein stock into 19 ul dilution buffer (10 nM); 300 mM NaCl, 25 mM Hepes-NaOH pH 7.5, 1 mM TCEP; room temperature
[3] = biological target: Chaetomium thermophilum NAT10 (CtNAT10), Sf9-produced recombinant (Chaetomium thermophilum); experiment: as above
[4] = biological target: T2, CtNAT10 WT (Chaetomium thermophilum, UniProt G0S273 1-1073); experiment: EMSA; no THUMPD1; 0.5 mM ATP, 0.1 mM acetyl-CoA; 50 mM Hepes-KOH pH 7.6, 90 mM NaCl (Fig 1B) or 75 mM NaCl + 0.2 mg/ml BSA (Fig S4A), 12 mM KCl, 10 mM MgCl2, 1 mM DTT, 0.5 mM ATP, 0.1 mM acetyl-CoA; Fig 1B 15; details: protein: recombinant; tags: N-terminal 6xHis; chain copies: 2; tRNA fold
T2 sequence: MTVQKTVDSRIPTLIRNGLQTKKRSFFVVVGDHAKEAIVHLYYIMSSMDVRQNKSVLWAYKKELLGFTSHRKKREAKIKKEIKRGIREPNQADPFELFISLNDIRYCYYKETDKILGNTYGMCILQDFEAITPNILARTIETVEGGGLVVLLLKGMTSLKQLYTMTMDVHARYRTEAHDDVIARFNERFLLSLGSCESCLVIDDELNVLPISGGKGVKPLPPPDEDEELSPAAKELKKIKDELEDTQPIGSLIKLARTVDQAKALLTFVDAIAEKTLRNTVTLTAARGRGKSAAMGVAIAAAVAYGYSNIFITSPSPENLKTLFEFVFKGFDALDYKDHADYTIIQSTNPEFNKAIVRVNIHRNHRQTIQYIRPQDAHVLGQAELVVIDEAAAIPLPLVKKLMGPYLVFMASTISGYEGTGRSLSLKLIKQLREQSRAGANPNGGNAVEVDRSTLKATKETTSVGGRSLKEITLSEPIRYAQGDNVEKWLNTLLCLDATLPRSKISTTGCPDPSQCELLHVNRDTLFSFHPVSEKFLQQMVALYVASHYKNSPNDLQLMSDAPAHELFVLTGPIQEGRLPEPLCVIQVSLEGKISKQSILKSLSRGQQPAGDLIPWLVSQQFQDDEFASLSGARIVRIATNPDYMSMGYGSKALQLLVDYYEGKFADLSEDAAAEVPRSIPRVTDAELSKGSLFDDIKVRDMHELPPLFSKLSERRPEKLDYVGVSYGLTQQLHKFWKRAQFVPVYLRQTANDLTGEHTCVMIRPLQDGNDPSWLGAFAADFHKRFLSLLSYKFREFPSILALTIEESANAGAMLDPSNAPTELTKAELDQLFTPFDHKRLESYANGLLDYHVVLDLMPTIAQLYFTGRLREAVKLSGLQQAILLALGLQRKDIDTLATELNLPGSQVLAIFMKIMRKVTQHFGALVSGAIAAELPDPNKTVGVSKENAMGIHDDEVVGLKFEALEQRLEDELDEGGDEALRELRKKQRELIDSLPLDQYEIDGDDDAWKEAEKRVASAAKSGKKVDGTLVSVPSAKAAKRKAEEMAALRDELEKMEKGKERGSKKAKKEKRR

[5] = biological target: T2, CtNAT10 WT; experiment: EMSA; 0.5 mM ATP, 0.1 mM acetyl-CoA; 50 mM Hepes-KOH pH 7.6, 90 mM NaCl (Fig 1B) or 75 mM NaCl + 0.2 mg/ml BSA (Fig S4A), 12 mM KCl, 10 mM MgCl2, 1 mM DTT, 0.5 mM ATP, 0.1 mM acetyl-CoA; Fig 1B 15; details: protein: recombinant; tags: N-terminal 6xHis; chain copies: 2; tRNA fold

Tm ([1]; ligand series 0.25-2500 μM): 53.8 ± 0.1 °C
Molecule: Nc1ncnc2c1ncn2[C@@H]1O[C@H](COP(=O)(O)OP(=O)(O)OP(=O)(O)O)[C@@H](O)[C@H]1O [ATP]

Tm ([1]; ligand series 0.25-2500 μM): 46.1 ± 0.1 °C
Molecule: CC(=O)SCCNC(=O)CCNC(=O)[C@H](O)C(C)(C)COP(=O)(O)OP(=O)(O)OC[C@H]1O[C@@H](n2cnc3c(N)ncnc32)[C@H](O)[C@@H]1OP(=O)(O)O [acetyl-CoA]

Tm ([1]; ligand series 0.20-2000 μM): 46.4 ± 0.1 °C
Molecule: CC(C)(COP(=O)(O)OP(=O)(O)OC[C@H]1O[C@@H](n2cnc3c(N)ncnc32)[C@H](O)[C@@H]1OP(=O)(O)O)[C@@H](O)C(=O)NCCC(=O)NCCSCC(=O)Nc1ccn([C@@H]2O[C@H](CO)[C@@H](O)[C@H]2O)c(=O)n1 [cytidine-amide-CoA]

stoichiometry N [2]: 2
Molecule: Chaetomium thermophilum NAT10 (CtNAT10), E. coli-produced recombinant (enzyme)

stoichiometry N [3]: 2
Molecule: Chaetomium thermophilum NAT10 (CtNAT10), Sf9-produced recombinant (enzyme)

B1: CttRNAAla (IVT) (structured_RNA)
RNA: GGGCGUGUAGCUCAGUUGGUAGAGCGUUCGCUUAGCAUGCGAGAGGUCCUGGGUUCGAUUCCCAGCCCGUCCA
binding result [4]: binds

B2: ct-tRNALeu (synthetic) (structured_RNA)
RNA: GGCAAGAUGGCCGAGCGGUCCAAGGCGCCAGGUUCAGGUCCUGGUCUCCGCAAGGGGGCGUGAGUUCGAAUCUCACUCUUGUCA
binding result [5]: binds

B3: ct-tRNASer (synthetic) (structured_RNA)
RNA: GACAACUUGGCCGAGUGGUUAAGGCGACAGACUUGAAAUCUGUUGGGUUCGCCCUCACAGGUUCGAAUCCUGUAGUUGUCG
binding result [5]: binds
